Key:
[1] = Microgel stability under cell culture procedures; assay type: physicochemical; conditions: for Microgel size and shape stability: autoclaving, UV irradiation, trypsinization, rocking, 37 and 22° C.
Procedure: A 400 μL amount of microgels was diluted in 6 mL of DMEM, and aliquots of 1 mL were seeded in five 35 mm plastic Petri dishes and one 40 mm glass Petri dish. Each dish containing microgels was treated as follows: (1) Autoclaving at 121° C. for 20 min using the glass dish, (2) UV irradiation for 30 min, and (3) 0.125% trypsin-EDTA at 37° C. for 5 min. In addition, the remaining dishes containing microgels were treated for 16-18 days as follows: (4) 37° C., 95% humidity, and 5% CO2, (5) 37° C., 95% humidity, and 5% CO2 under rocker conditions at 30 rpm, and (6) 22° C. on a shelf. Microgel imaging was done before treatment and follow up every other day. FIG. 31 summarizes the experimental design.
Microgel imaging was done at each condition and time point using a CLSM Zeiss® 710 or 880 by tile scanning with 15% overlapping and online stitching to capture as many microgels as possible from the dish. The Feret diameter and roundness of each microgel was calculated using ImageJ software by manually drawing up to 59 microgel contours per condition. All statistical data analysis and microgel descriptor plotting were conducted in Origin software. To assess the effect of the treatments on the microgel diameter and roundness, a Kruskal—Wallis test with Posthoc test pairwise Mann—Whitney U tests was applied.

[2] = tested on: endothelial cells (HUVECs); assay: Cell culture on microgels, HUVEC; assay type: cell-based, human; conditions: first 24 h of culture
Procedure: A 1.2×10^6 amount of cells suspended in 4 mL of complete cell culture media (300,000 cells/mL) was mixed with 200 μL of microgels by pipetting. The mix was seeded at […] in a 24-well low binding plate and kept at 37° C., 95% humidity, and 5% CO2 under rocker conditions at 30 rpm for 24 h. Then, cell-laden microgels were transferred into a tube by pipetting and spun down at 50 g for 5 min. The upper layer, containing cells not adherent to the microgels, was discarded. At this moment, cell-laden microgels were either resuspended with complete cell culture media to continue cell culture under rocker conditions or processed for staining.
The cell-laden microgels were fixed with 4% formaldehyde (v/v) in PBS and incubated for 30 min at 22° C. Later, formaldehyde was removed by centrifugation, and cell-laden microgels were washed twice with PBS in a similar way. Permeabilization buffer (6.3 mM MgCl2, 233.7 mM sucrose, 0.5% (v/v) Triton® X-100 in PBS) was kept at −20° C. and thawed just before use. […]
Proliferative cells were labeled by incubating cell-laden microgels with […] EdU in complete medium for 24 h in rocking culture at 30 rpm. […] EdU was detected following the manufacturer instructions by incubating cell-laden microgels with a Click-iT Plus reaction cocktail for 30 min at 22° C. protected from light. […]

[3] = Peptide gelation study (vial inversion method); assay type: physicochemical; conditions: for Time to form hydrogel: 4 mg/mL, room temperature, in the presence of PBS
Procedure: The preweighed (as per the required final concentration) peptide powder was dissolved in 0.9 mL of Milli-Q® water in a glass vial. The solution was vortexed for 5-10 s to obtain a clear and homogeneous solution. To this peptide solution, 0.1 mL of PBS buffer (10×, w/o Ca^2+ and Mg^2+) was added. To ensure a homogeneous distribution of buffer in the solution, the glass vial was further vortexed for 2-3 s. The glass vial was kept undisturbed on the bench, and hydrogel formation was observed using the vial inversion method, as shown in FIG. 9. The pH of the solutions of IVFK (SEQ ID NO. 1) and IVZK (SEQ ID NO. 2) was 5.57 and 5.48 at a 5 mg/mL concentration, respectively. After the addition of PBS, the pH changed to 7.7 and 7.6 for IVFK (SEQ ID NO. 1) and IVZK (SEQ ID NO. 2), respectively. The pH of the Milli-Q® water and phosphate buffer used was 6.7 and 7.4, respectively.

[4] = 22 C. at day 0, 2, 4, 10, 12, 14, 16, 18, the 5th table
[5] = 22 C. at day 0, 2, 4, 10, 12, 14, 16, the 4th table
[6] = 22 C., Autoclaving, UV and Trypsin, the 4th table
[7] = 22 C., Autoclaving, UV and Trypsin, the 5th table
[8] = 37 C. at day 0, 2, 4, 10, 12, 14, 16, 18, the 5th table
[9] = 37 C. at day 0, 2, 4, 10, 12, 14, 16, the 4th table
[10] = 37 C. at day 0, 2, 4, 16, 12, 14, 16, 18, the 5th table
[11] = 37 C. with rocking at day 0, 2, 4, 10, 12, 14, 16, 18, the 5th table
[12] = 37 C. with rocking at day 0, 2, 4, 10, 12, 14, 16, the 4th table
[13] = 37 C. with rocking at day 0, 2, 4, 10, 12, 14, 36, 18, the 5th table

Question: Which “X2 (Kruskal-Wallis), microgel diameter” value [1, 4] does the source give for “Ac-Ile-Val-Phe-Lys-NH2 (Ac-IVFK-NH2) [self-assembling ultrashort tetrapeptide, forms hydrogels and microgels]” here?
Answer: 10.76

Question: What about the “X2 (Kruskal-Wallis), microgel roundness” value [1, 4] of the same substance?
Answer: 7.72

Question: And the “p (Kruskal-Wallis), microgel diameter” value [1, 4]?
Answer: >0.05

Question: And the “p (Kruskal-Wallis), microgel roundness” value [1, 4]?
Answer: >0.05

Question: What about the “X2 (Kruskal-Wallis), microgel diameter” value [1, 5] of the same substance?
Answer: 1.69

Question: What about the “X2 (Kruskal-Wallis), microgel roundness” value [1, 5] of the same substance?
Answer: 1.65

Question: What about the “p (Kruskal-Wallis), microgel diameter” value [1, 5] of the same substance?
Answer: >0.05

Question: What about the “p (Kruskal-Wallis), microgel roundness” value [1, 5] of the same substance?
Answer: >0.05

Question: What about the “X2 (Kruskal-Wallis), microgel diameter” value [1, 6] of the same substance?
Answer: 3.99

Question: And the “X2 (Kruskal-Wallis), microgel roundness” value [1, 6]?
Answer: 6.48

Question: And the “p (Kruskal-Wallis), microgel diameter” value [1, 6]?
Answer: >0.05

Question: What about the “p (Kruskal-Wallis), microgel roundness” value [1, 6] of the same substance?
Answer: >0.05

Question: And the “X2 (Kruskal-Wallis), microgel diameter” value [1, 7]?
Answer: 5.61

Question: And the “X2 (Kruskal-Wallis), microgel roundness” value [1, 7]?
Answer: 1.82

Question: What about the “p (Kruskal-Wallis), microgel diameter” value [1, 7] of the same substance?
Answer: >0.05

Question: And the “p (Kruskal-Wallis), microgel roundness” value [1, 7]?
Answer: >0.05

Question: What about the “X2 (Kruskal-Wallis), microgel roundness” value [1, 8] of the same substance?
Answer: 12.93

Question: And the “p (Kruskal-Wallis), microgel roundness” value [1, 8]?
Answer: >0.05

Question: And the “X2 (Kruskal-Wallis), microgel diameter” value [1, 9]?
Answer: 1.28

Question: What about the “X2 (Kruskal-Wallis), microgel roundness” value [1, 9] of the same substance?
Answer: 7.52

Question: What about the “p (Kruskal-Wallis), microgel diameter” value [1, 9] of the same substance?
Answer: >0.05

Question: And the “p (Kruskal-Wallis), microgel roundness” value [1, 9]?
Answer: >0.05

Question: And the “X2 (Kruskal-Wallis), microgel diameter” value [1, 10]?
Answer: 13.16

Question: What about the “p (Kruskal-Wallis), microgel diameter” value [1, 10] of the same substance?
Answer: >0.05

Question: What about the “p (Kruskal-Wallis), microgel diameter” value ([1]; 37 C. with mocking at day 0, 2, 4, 10, 12, 14, 16, the 4th table) of the same substance?
Answer: >0.05

Question: What about the “X2 (Kruskal-Wallis), microgel diameter” value [1, 11] of the same substance?
Answer: 10.89

Question: What about the “p (Kruskal-Wallis), microgel diameter” value [1, 11] of the same substance?
Answer: >0.05

Question: And the “X2 (Kruskal-Wallis), microgel diameter” value [1, 12]?
Answer: 5.81

Question: What about the “X2 (Kruskal-Wallis), microgel roundness” value [1, 12] of the same substance?
Answer: 3.62

Question: What about the “p (Kruskal-Wallis), microgel roundness” value [1, 12] of the same substance?
Answer: >0.05

Question: And the “X2 (Kruskal-Wallis), microgel roundness” value [1, 13]?
Answer: 4.28

Question: What about the “p (Kruskal-Wallis), microgel roundness” value [1, 13] of the same substance?
Answer: >0.05

Question: What about the “Microgel size and shape stability” value [1] of the same substance?
Answer: maintain their size and shape

Question: And the “HUVEC cell adhesion and morphology on microgels” value [2]?
Answer: cell adhesion and stretched morphology

Question: And the “Critical gelation concentration in bulky hydrogels” value [3]?
Answer: 0.4 wt %

Question: What about the “Time to form hydrogel” value [3] of the same substance?
Answer: 10 min

Question: With “Ac-Ile-Val-Cha-Lys-NH2 (IVXK; HELM PEPTIDE1{[ac].I.V.[Cha].K.[am]}$$$$V2.0; SMILES CC[C@H](C)[C@H](NC(C)=O)C(=O)N[C@H](C(=O)N[C@@H](CC1CCCCC1)C(=O)N[C@@H](CCCCN)C(N)=O)C(C)C) [IVZK, self-assembling ultrashort tetrapeptide, Z = cyclohexylalanine, forms hydrogels and microgels]” as the substance, how does the “Microgel size and shape stability” value [1] read?
Answer: maintain their size and shape

Question: And the “HUVEC cell adhesion and morphology on microgels” value [2]?
Answer: cell adhesion and stretched morphology

Question: And the “Critical gelation concentration in bulky hydrogels” value [3]?
Answer: 0.3 wt %

Question: And the “Time to form hydrogel” value [3]?
Answer: 10 min

Source: patent US20230382948A1, “DELIVERY OF ENDOTHELIAL CELL-LADEN MICROGEL ELICITS ANGIOGENESIS IN SELF-ASSEMBLING ULTRASHORT PEPTIDE HYDROGELS” (KING ABDULLAH UNIVERSITY OF SCIENCE AND TECHNOLOGY, priority 2020, published 2023)
